Laboratory results published in article PMC11132685.

Biological target: tetrabrachion-stabilised recombinant N2 NA (NACHO) of A/MORAMANGA/1907/2017 (not stated | influenza A virus (H3N2) A/MORAMANGA/1907/2017)
Test: SEC-MALS; purified NACHOs; oligomeric state; conditions not given

Q: “tetrabrachion-stabilised recombinant N2 NA (NACHO) of A/MORAMANGA/1907/2017 (enzyme)” was tested. Which stoichiometry N did it give?
A: 4
